Target: tdPCP-GFP-VPR (PP7 (from the protein's name) | not stated)
Experiment: fluorescence intensity at the reporter gene array in cells

Substance: tdPCP-GFP-VPR
- fold signal at the reporter array against tdPCP-GFP-VP16: 1.9 fold
